Results from article PMC2409435 (Nature, 2007).

Biological target: Recombinant MRE11-RAD50-NBS1 (MRN) complex (human | , UniProt P49959 1-708; Q92878 1-1312; O60934 1-754)
Assay: co-IP

Chain of Recombinant MRE11-RAD50-NBS1 (MRN) complex (P49959 whole entry, chain 1 of 3): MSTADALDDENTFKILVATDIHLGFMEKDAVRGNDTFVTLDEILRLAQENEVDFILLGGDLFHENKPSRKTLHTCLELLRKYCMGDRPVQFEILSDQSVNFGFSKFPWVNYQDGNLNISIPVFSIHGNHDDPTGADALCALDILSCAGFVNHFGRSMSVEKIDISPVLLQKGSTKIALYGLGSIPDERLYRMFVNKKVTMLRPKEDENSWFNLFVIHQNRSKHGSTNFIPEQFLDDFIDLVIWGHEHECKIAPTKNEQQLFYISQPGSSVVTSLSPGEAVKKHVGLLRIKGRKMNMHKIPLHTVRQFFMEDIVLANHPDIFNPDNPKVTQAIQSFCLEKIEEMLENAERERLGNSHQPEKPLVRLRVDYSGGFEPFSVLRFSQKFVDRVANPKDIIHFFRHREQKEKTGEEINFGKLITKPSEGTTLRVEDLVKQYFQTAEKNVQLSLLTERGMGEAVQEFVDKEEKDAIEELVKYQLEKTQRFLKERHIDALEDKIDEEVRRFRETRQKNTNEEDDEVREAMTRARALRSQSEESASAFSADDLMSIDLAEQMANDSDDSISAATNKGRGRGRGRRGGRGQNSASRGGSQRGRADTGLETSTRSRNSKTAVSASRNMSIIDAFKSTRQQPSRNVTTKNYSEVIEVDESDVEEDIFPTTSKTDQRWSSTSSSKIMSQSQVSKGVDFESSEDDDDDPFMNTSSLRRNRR
Chain of Recombinant MRE11-RAD50-NBS1 (MRN) complex (Q92878 whole entry, chain 2 of 3): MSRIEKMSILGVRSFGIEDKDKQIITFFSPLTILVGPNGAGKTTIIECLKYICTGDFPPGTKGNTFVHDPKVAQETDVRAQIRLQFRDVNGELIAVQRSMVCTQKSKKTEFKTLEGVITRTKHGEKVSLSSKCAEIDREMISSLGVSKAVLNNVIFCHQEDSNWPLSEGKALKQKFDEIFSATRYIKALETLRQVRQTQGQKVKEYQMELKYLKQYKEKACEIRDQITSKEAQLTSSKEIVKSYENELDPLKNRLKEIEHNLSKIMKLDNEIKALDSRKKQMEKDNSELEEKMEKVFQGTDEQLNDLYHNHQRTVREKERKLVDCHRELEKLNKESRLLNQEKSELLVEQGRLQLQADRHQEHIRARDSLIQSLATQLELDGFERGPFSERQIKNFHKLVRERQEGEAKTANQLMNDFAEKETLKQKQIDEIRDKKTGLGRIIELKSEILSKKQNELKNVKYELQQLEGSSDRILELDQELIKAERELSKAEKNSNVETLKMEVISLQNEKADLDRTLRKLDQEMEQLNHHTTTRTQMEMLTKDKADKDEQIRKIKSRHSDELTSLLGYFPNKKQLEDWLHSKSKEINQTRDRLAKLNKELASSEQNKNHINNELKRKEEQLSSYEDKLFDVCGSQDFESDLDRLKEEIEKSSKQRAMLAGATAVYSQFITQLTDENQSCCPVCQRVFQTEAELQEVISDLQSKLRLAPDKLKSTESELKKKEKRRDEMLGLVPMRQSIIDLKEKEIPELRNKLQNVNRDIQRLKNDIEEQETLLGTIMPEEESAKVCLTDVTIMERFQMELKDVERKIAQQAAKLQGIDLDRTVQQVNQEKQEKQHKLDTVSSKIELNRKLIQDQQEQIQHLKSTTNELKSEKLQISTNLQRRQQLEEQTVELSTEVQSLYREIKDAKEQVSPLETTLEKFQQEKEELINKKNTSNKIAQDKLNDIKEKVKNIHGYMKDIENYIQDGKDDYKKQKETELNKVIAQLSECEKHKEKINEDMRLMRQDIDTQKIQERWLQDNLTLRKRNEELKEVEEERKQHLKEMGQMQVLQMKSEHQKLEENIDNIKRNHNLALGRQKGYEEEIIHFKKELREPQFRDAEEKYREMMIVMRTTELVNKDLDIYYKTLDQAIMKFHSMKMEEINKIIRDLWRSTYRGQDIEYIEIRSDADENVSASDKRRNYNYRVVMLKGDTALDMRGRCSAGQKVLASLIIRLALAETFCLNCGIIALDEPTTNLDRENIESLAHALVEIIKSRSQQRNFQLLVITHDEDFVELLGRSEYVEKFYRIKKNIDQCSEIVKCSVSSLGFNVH
Chain of Recombinant MRE11-RAD50-NBS1 (MRN) complex (O60934 whole entry, chain 3 of 3): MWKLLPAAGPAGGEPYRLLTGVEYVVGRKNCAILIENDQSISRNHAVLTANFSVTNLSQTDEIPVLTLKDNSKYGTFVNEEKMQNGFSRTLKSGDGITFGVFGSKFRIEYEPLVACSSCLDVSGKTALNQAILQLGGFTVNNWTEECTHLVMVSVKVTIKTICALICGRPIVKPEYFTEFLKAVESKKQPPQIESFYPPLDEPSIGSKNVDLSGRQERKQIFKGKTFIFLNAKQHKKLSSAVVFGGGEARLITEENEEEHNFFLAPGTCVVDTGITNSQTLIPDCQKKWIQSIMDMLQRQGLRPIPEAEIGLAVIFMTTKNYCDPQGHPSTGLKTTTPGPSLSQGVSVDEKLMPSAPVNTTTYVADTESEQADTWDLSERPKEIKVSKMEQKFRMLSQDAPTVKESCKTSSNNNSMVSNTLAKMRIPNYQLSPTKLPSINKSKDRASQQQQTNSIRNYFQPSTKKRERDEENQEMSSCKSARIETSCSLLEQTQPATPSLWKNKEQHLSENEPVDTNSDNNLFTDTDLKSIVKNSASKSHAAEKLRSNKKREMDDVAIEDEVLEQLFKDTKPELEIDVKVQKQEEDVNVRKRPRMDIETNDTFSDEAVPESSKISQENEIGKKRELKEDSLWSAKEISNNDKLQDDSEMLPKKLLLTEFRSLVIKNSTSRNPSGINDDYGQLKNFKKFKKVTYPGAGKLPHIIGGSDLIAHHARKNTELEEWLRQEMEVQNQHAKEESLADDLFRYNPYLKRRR

binding result: binds
B1: Recombinant FLAG-GST-CtIP-6H (natural protein, human, UniProt Q99708 1-897, looked up)
chain: MNISGSSCGSPNSADTSSDFKDLWTKLKECHDREVQGLQVKVTKLKQERILDAQRLEEFFTKNQQLREQQKVLHETIKVLEDRLRAGLCDRCAVTEEHMRKKQQEFENIRQQNLKLITELMNERNTLQEENKKLSEQLQQKIENDQQHQAAELECEEDVIPDSPITAFSFSGVNRLRRKENPHVRYIEQTHTKLEHSVCANEMRKVSKSSTHPQHNPNENEILVADTYDQSQSPMAKAHGTSSYTPDKSSFNLATVVAETLGLGVQEESETQGPMSPLGDELYHCLEGNHKKQPFEESTRNTEDSLRFSDSTSKTPPQEELPTRVSSPVFGATSSIKSGLDLNTSLSPSLLQPGKKKHLKTLPFSNTCISRLEKTRSKSEDSALFTHHSLGSEVNKIIIQSSNKQILINKNISESLGEQNRTEYGKDSNTDKHLEPLKSLGGRTSKRKKTEEESEHEVSCPQASFDKENAFPFPMDNQFSMNGDCVMDKPLDLSDRFSAIQRQEKSQGSETSKNKFRQVTLYEALKTIPKGFSSSRKASDGNCTLPKDSPGEPCSQECIILQPLNKCSPDNKPSLQIKEENAVFKIPLRPRESLETENVLDDIKSAGSHEPIKIQTRSDHGGCELASVLQLNPCRTGKIKSLQNNQDVSFENIQWSIDPGADLSQYKMDVTVIDTKDGSQSKLGGETVDMDCTLVSETVLLKMKKQEQKGEKSSNEERKMNDSLEDMFDRTTHEEYESCLADSFSQAADEEEELSTATKKLHTHGDKQDKVKQKAFVEPYFKGDERETSLQNFPHIEVVRKKEERRKLLGHTCKECEIYYADMPAEEREKKLASCSRHRFRYIPPNTPENFWEVGFPSTQTCMERGYIKEDLDPCPRPKRRQPYNAIFSPKGKEQKT
